The values below come from patent publication US8247352B2, “Method of inhibiting ethylene production in plants” (The Regents of the University of California, priority 2005, dated 2012).

Common to all, as to assay: Initial velocity assays (rate of oxygen consumption) with ACC or substrate analogs
What all share (type): biochemical, Lycopersicon esculentum
Holding throughout (conditions): other: O2 consumption, 25° C., pH 7.2, [Ascorbate] = 30 mM, [O2] = 258 μM, [CO2/bicarbonate] = 20 mM

Substrate in series [1]: CC(C)(N)C(=O)O
Substrate in series [2]: C[C@@H](N)C(=O)O
Substrate in series [3]: NC1(C(=O)O)CC1

B1: ACC Oxidase (ACCO, ACO1) (Solanum lycopersicum) (protein)
chain: MENFPIINLEKLNGDERANTMEMIKDACENWGFFELVNHGIPHEVMDTVEKMTKGHYKKCMEQRFKELVASKGLEAVQAEVTDLDWESTFFLRHLPTSNISQVPDLDEEYREVMRDFAKRLEKLAEELLDLLCENLGLEKGYLKNAFYGSKGPNFGTKVSNYPPCPKPDLIKGLRAHTDAGGIILLFQDDKVSGLQLLKDEQWIDVPPMRHSIVVNLGDQLEVITNGKYKSVLHRVIAQTDGTRMSLASFYNPGSDAVIYPAKTLVEKEAEESTQVYPKFVFDDYMKLYAGLKFQAKEPRFEAMKAMESDPIASA
notes: made in house; host or cells: Escherichia coli BL21 (DE3)pLysS
Turning to B1, the results for the Km in series [1], in series [2] and in series [3] were 0.92 ± 0.29 mm, 4.42 ± 0.49 mm and 0.099 ± 0.018 mm, respectively. For the same protein, the kcat in series [1] worked out at 0.368 ± 0.0267 s⁻¹; in series [2], 0.497 ± 0.015 s⁻¹; in series [3], 0.607 ± 0.0233 s⁻¹.

As usually defined, the kcat is the number of substrate molecules converted per active site and unit of time at saturation.
